Assay results from publication PMC6119766, “Terminal Regions Confer Plasticity to the Tetrameric Assembly of Human HspB2 and HspB3” (Journal of Molecular Biology, 2018).

B1: human HspB2 (natural protein, UniProt Q16082 1-182, looked up)
chain: MSGRSVPHAHPATAEYEFANPSRLGEQRFGEGLLPEEILTPTLYHGYYVRPRAAPAGEGSRAGASELRLSEGKFQAFLDVSHFTPDEVTVRTVDNLLEVSARHPQRLDRHGFVSREFCRTYVLPADVDPWRVRAALSHDGILNLEAPRGGRHLDTEVNEVYISLLPAPPDPEEEEEAAIVEP
notes: human HspB2 (small heat shock protein B2); Made together with HspB3 from one pET3a construct; also called HsB2; HspB2_Human; source: E. coli BL21(DE3), pET3a-HspB2/B3, purified (DEAE-Sepharose, Source 15Q)
B3: human HspB3 (wild type) (natural protein, UniProt Q12988 1-150, looked up)
chain: MAKIILRHLIEIPVRYQEEFEARGLEDCRLDHALYALPGPTIVDLRKTRAAQSPPVDSAAETPPREGKSHFQILLDVVQFLPEDIIIQTFEGWLLIKAQHGTRMDEHGFISRSFTRQYKLPDGVEIKDLSAVLCHDGILVVEVKDPVGTK
notes: human HspB3 (small heat shock protein B3); HspB3 could not be purified alone; it is obtained only in complex with HspB2; also called HsB3; HspB3_Human; source: E. coli BL21(DE3), pET3a-HspB2/B3 wild type, purified with HspB2 (DEAE-Sepharose, Source 15Q)
B4: engineered human HspB3 with the C-terminal extension of human HspB2 (HspB3 + B2tail) (other)
chain: MAKIILRHLIEIPVRYQEEFEARGLEDCRLDHALYALPGPTIVDLRKTRAAQSPPVDSAAETPPREGKSHFQILLDVVQFLPEDIIIQTFEGWLLIKAQHGTRMDEHGFISRSFTRQYKLPDGVEIKDLSAVLCHDGILVVEVKDPVGTPEEEEEAAIVEP
notes: human HspB3 without its C-terminal lysine, which was replaced by the HspB2 tail; last 12 amino acids of human HspB2, residues 171-182; The results say the tail was added to the C-terminus; the methods say it replaced the C-terminal lysine (the reverse primer fits the methods); also called engineered HspB3 mutant; engineered mutant human HspB3; source: E. coli BL21(DE3), pET3a-HspB2/B3 mutant, …
B5: rat HspB2 (natural protein, UniProt O35878 1-182, looked up)
chain: MSGRTVPHAHPATAEYEFANPSRLGEQRFGEGLLPEEILTPTLYHGYYVRPRAARAGEGGRAGASELRLSEGKFQAFLDVSHFTPDEVTVRTVDNLLEVSARHPQRLDRHGFVSREFCRTYVLPADVDPWRVRAALSHDGILNLEAPRGGRHLDTEVNEVYISLLPAPPDPEEEEEVARVEP
notes: rat HspB2, wild type; C-terminal residues E172 to P182 seen by NMR; also called RnB2; HspB2_Rat
B6: rat HspB3 (natural protein, UniProt Q9QZ58 1-152, looked up)
chain: MAKIILRHLIETPVRYQEEFEARGLEDCRLDHALYALPGPTIEDLRKARGTPKALAEDSDSAETPPGEGKSRFQILLDVVQFLPEDIIIQTFEGWLLIKAQHGTRMDEHGFISRSFTRQYKLPDGVETKDLSAILCHDGILVVEVKDPLETK
notes: rat HspB3, wild type; ultimate C-terminal residue K152; also called RnB3; HspB3_Rat

Assays:
[1] = molecular target: the molecule itself; test: crystal structure; hanging drop at 21 °C; 3.9 Å; space group P3(1); three hetero-tetramers (12 chains) in the asymmetric unit
human HspB3 (wild type) = molecular target: B3; test: SEC + native MS; HspB2/B3 complexes; Superdex 200 10/300 fractions nanoelectrosprayed at 10 μM in 200 mM ammonium acetate (pH 6.9); conditions: both partners purified
[2] = molecular target: B4; test: as above; conditions: both partners purified
[3] = molecular target: the molecule itself; test: as above
rat HspB2 = molecular target: B5; test: as above; conditions: both partners purified
human HspB2 [4] = molecular target: B1; test: crystal structure; hanging drop at 21 °C; 3.9 Å; space group P3(1); three hetero-tetramers (12 chains) in the asymmetric unit; conditions: both partners purified
rat HspB3 = molecular target: B6; test: SEC + native MS; HspB2/B3 complexes; Superdex 200 10/300 fractions nanoelectrosprayed at 10 μM in 200 mM ammonium acetate (pH 6.9); conditions: both partners purified
human HspB2 [5] = molecular target: B1; test: as above; conditions: both partners purified

Binder: B1
- binding result [1]: binds
- stoichiometry N (human HspB3 (wild type)): 3 HspB2 per HspB3
- stoichiometry N [2]: 3 HspB2 per HspB3

B2: rat HspB2/B3 hetero-tetramer (complex)
chain 1: MSGRTVPHAHPATAEYEFANPSRLGEQRFGEGLLPEEILTPTLYHGYYVRPRAARAGEGGRAGASELRLSEGKFQAFLDVSHFTPDEVTVRTVDNLLEVSARHPQRLDRHGFVSREFCRTYVLPADVDPWRVRAALSHDGILNLEAPRGGRHLDTEVNEVYISLLPAPPDPEEEEEVARVEP
chain 2: MAKIILRHLIETPVRYQEEFEARGLEDCRLDHALYALPGPTIEDLRKARGTPKALAEDSDSAETPPGEGKSRFQILLDVVQFLPEDIIIQTFEGWLLIKAQHGTRMDEHGFISRSFTRQYKLPDGVETKDLSAILCHDGILVVEVKDPLETK
notes: rat HspB2, as m5; rat HspB3, as m6; The protomer that forms the higher oligomers; also called wild-type rat HspB2/B3; copies: 3 + 1
- stoichiometry N [3]: 8 to 24 chains (the hetero-tetramer has 4)

Binder: B3
- binding result (rat HspB2): binds

Binder: B4
- binding result (human HspB2 [4]): binds

Binder: B5
- stoichiometry N (rat HspB3): 3 HspB2 per HspB3

Binder: B6
- binding result (human HspB2 [5]): binds
